Assays:
HLA-B*07:02 = experiment: IEDB peptide-MHC binding, purified MHC/direct/fluorescence; filed as Kd, often an IC50 or EC50 that approximates it; ≥ and ≤ were set here for values at or beyond the usual limits of such assays
HLA-A*31:01 [1] = experiment: as above
HLA-B*15:01 [2] = experiment: as above
HLA-A*01:01 = experiment: as above
HLA-B*40:01 = experiment: as above
HLA-A*24:02 = experiment: as above
HLA-B*44:02 = experiment: as above
HLA-B*58:01 = experiment: as above
HLA-B*08:02 = experiment: as above
HLA-B*46:01 [3] = experiment: as above
HLA-A*03:01 [4] = experiment: as above
HLA-A*69:01 [5] = experiment: as above
HLA-A*02:01 [6] = experiment: as above
HLA-A*11:01 = experiment: as above
HLA-B*18:01 [7] = experiment: as above
HLA-B*27:05 = experiment: as above
HLA-B*08:01 = experiment: as above; conditions: source organism: Vibrio parahaemolyticus AQ3810
HLA-B*15:09 = experiment: as above
HLA-C*03:03 = experiment: as above
HLA-B*51:01 [8] = experiment: as above
HLA-A*02:12 [9] = experiment: as above; conditions: source organism: Ravn virus - Ravn, Kenya, 1987
HLA-C*12:03 = experiment: as above; conditions: source organism: human gammaherpesvirus 4
HLA-B*15:01 [10] = experiment: IEDB peptide-MHC binding, purified MHC/competitive/fluorescence; filed as Kd, often an IC50 or EC50 that approximates it; ≥ and ≤ were set here for values at or beyond the usual limits of such assays
HLA-A*24:03 = experiment: as above
HLA-B*15:17 = experiment: as above; conditions: source organism: Entamoeba histolytica HM-1:IMSS
HLA-A*02:16 = experiment: as above
HLA-B*39:01 = experiment: as above
HLA-A*26:01 = experiment: as above
HLA-A*02:19 = experiment: as above
HLA-B*46:01 [11] = experiment: as above
HLA-A*68:02 = experiment: as above
HLA-B*57:01 = experiment: as above
HLA-A*02:03 = experiment: as above
HLA-A*03:01 [12] = experiment: as above; conditions: source organism: Entamoeba histolytica HM-1:IMSS
HLA-A*02:12 [13] = experiment: as above
HLA-A*69:01 [14] = experiment: as above
HLA-A*02:01 [15] = experiment: as above
HLA-B*18:01 [16] = experiment: as above
HLA-B*27:03 = experiment: as above
HLA-B*51:01 [17] = experiment: as above
HLA-A*02:11 = experiment: as above
HLA-A*29:02 = experiment: as above
HLA-A*31:01 [18] = experiment: as above; conditions: source organism: Cryptosporidium parvum Iowa II
[19] = source organism: Coxiella burnetii
[20] = source organism: Vibrio parahaemolyticus
[21] = source organism: Vibrio parahaemolyticus AQ3810
[22] = source organism: Rickettsia bellii
[23] = source organism: dengue virus type 4
[24] = source organism: Marburg virus - Musoke, Kenya, 1980
[25] = source organism: Entamoeba histolytica HM-1:IMSS
[26] = source organism: Cryptosporidium parvum Iowa II

AISRLRTQK
Kd (HLA-B*07:02; [19]): ≥ 20 µM
Kd (HLA-A*31:01 [1]; [19]): 0.344 µM
Kd (HLA-B*15:01 [2]; [19]): ≥ 20 µM
Kd (HLA-A*01:01; [19]): ≥ 20 µM
Kd (HLA-B*40:01; [19]): ≥ 20 µM
Kd (HLA-A*24:02; [19]): ≥ 20 µM
Kd (HLA-B*44:02; [19]): ≥ 20 µM
Kd (HLA-B*58:01; [19]): ≥ 20 µM
Kd (HLA-B*08:02; source organism: Coxiella burnetii Q321): ≥ 20 µM
Kd (HLA-B*46:01 [3]; [19]): ≥ 20 µM
Kd (HLA-A*03:01 [4]; [19]): 0.386 µM
Kd (HLA-A*69:01 [5]; [19]): ≥ 20 µM
Kd (HLA-A*02:01 [6]; [19]): ≥ 20 µM
Kd (HLA-A*11:01; [19]): 0.0995 µM
Kd (HLA-B*18:01 [7]; [19]): ≥ 20 µM
Kd (HLA-B*27:05; [19]): ≥ 20 µM

MLDQFGVSY
Kd (HLA-B*07:02; [20]): ≥ 20 µM
Kd (HLA-A*31:01 [1]; [20]): ≥ 20 µM
Kd (HLA-B*08:01): ≥ 20 µM
Kd (HLA-B*15:01 [2]; [20]): 0.143 µM
Kd (HLA-A*01:01; [20]): 0.021 µM
Kd (HLA-B*40:01; [20]): ≥ 20 µM
Kd (HLA-A*24:02; [20]): ≥ 20 µM
Kd (HLA-B*44:02; [20]): ≥ 20 µM
Kd (HLA-B*58:01; [20]): ≥ 20 µM
Kd (HLA-B*08:02; [21]): ≥ 20 µM
Kd (HLA-B*15:09; [21]): ≥ 20 µM
Kd (HLA-A*03:01 [4]; [20]): ≥ 20 µM
Kd (HLA-A*69:01 [5]; [20]): ≥ 20 µM
Kd (HLA-A*02:01 [6]; [20]): ≥ 20 µM
Kd (HLA-A*11:01; [20]): ≥ 20 µM
Kd (HLA-B*27:05; [20]): ≥ 20 µM

LANYAFFAI
Kd (HLA-C*03:03; source organism: Streptococcus pneumoniae R6): ≤ 0.001 µM
Kd (HLA-B*51:01 [8]; source organism: Streptococcus pneumoniae): 0.23 µM

NIDPEHLDY
Kd (HLA-B*07:02; [22]): ≥ 20 µM
Kd (HLA-A*31:01 [1]; [22]): ≥ 20 µM
Kd (HLA-B*15:01 [2]; [22]): ≥ 20 µM
Kd (HLA-A*01:01; [22]): 0.0326 µM
Kd (HLA-B*40:01; [22]): ≥ 20 µM
Kd (HLA-A*24:02; [22]): ≥ 20 µM
Kd (HLA-B*44:02; [22]): ≥ 20 µM
Kd (HLA-B*58:01; [22]): ≥ 20 µM
Kd (HLA-B*46:01 [3]; [22]): ≥ 20 µM
Kd (HLA-B*15:09; source organism: Rickettsia typhi str. Wilmington): ≥ 20 µM
Kd (HLA-A*03:01 [4]; [22]): ≥ 20 µM
Kd (HLA-A*69:01 [5]; [22]): ≥ 20 µM
Kd (HLA-A*02:01 [6]; [22]): ≥ 20 µM
Kd (HLA-A*11:01; [22]): ≥ 20 µM
Kd (HLA-B*18:01 [7]; [22]): ≥ 20 µM
Kd (HLA-B*27:05; [22]): ≥ 20 µM

ILRNPGFAL
Kd (HLA-C*03:03; [23]): 0.211 µM
Kd (HLA-B*51:01 [8]; [23]): ≥ 20 µM

YMQQVSEGL
Kd (HLA-C*03:03; source organism: Orthomarburgvirus marburgense): 0.498 µM
Kd (HLA-A*02:12 [9]): 0.002 µM
Kd (HLA-A*69:01 [5]; [24]): 1.38 µM
Kd (HLA-A*02:01 [6]; [24]): 0.153 µM

SQAPLPCVL
Kd (HLA-C*12:03): 0.554 µM

IEAKINVAD
Kd (HLA-B*15:01 [10]; [25]): ≥ 20 µM
Kd (HLA-A*24:03; [25]): ≥ 20 µM
Kd (HLA-B*15:17): ≥ 20 µM
Kd (HLA-A*02:16; [25]): ≥ 20 µM
Kd (HLA-B*39:01; [25]): ≥ 20 µM
Kd (HLA-A*26:01; [25]): ≥ 20 µM
Kd (HLA-A*02:19; [25]): ≥ 20 µM
Kd (HLA-B*46:01 [11]; [25]): ≥ 20 µM
Kd (HLA-A*68:02; [25]): ≥ 20 µM
Kd (HLA-B*57:01; [25]): ≥ 20 µM
Kd (HLA-A*02:03; [25]): ≥ 20 µM
Kd (HLA-A*03:01 [12]): ≥ 20 µM
Kd (HLA-A*02:12 [13]; [25]): ≥ 20 µM
Kd (HLA-A*69:01 [14]; [25]): ≥ 20 µM
Kd (HLA-A*02:01 [15]; [25]): ≥ 20 µM
Kd (HLA-B*18:01 [16]; [25]): 0.389 µM
Kd (HLA-B*27:03; [25]): ≥ 20 µM
Kd (HLA-B*51:01 [17]; [25]): ≥ 20 µM
Kd (HLA-A*02:11; [25]): ≥ 20 µM
Kd (HLA-A*29:02; [25]): ≥ 20 µM

RGRKPIFRK
Kd (HLA-A*31:01 [18]): 0.0532 µM
Kd (HLA-B*15:01 [10]; [26]): ≥ 20 µM
Kd (HLA-A*24:03; [26]): ≥ 20 µM
Kd (HLA-A*02:16; [26]): ≥ 20 µM
Kd (HLA-B*39:01; [26]): ≥ 20 µM
Kd (HLA-A*26:01; [26]): ≥ 20 µM
Kd (HLA-A*02:19; [26]): ≥ 20 µM
Kd (HLA-B*46:01 [11]; [26]): ≥ 20 µM
Kd (HLA-A*68:02; [26]): ≥ 20 µM
Kd (HLA-B*57:01; [26]): ≥ 20 µM
Kd (HLA-A*02:03; [26]): ≥ 20 µM
Kd (HLA-A*02:12 [13]; [26]): ≥ 20 µM
Kd (HLA-A*69:01 [14]; [26]): ≥ 20 µM
Kd (HLA-A*02:01 [15]; [26]): ≥ 20 µM
Kd (HLA-B*18:01 [16]; [26]): ≥ 20 µM
Kd (HLA-B*27:03; [26]): ≥ 20 µM
Kd (HLA-B*51:01 [17]; [26]): ≥ 20 µM
Kd (HLA-A*02:11; [26]): ≥ 20 µM
Kd (HLA-A*29:02; [26]): ≥ 20 µM

From the Immune Epitope Database (IEDB)
